Experimental data as given in the supplement of paper PMC9732359.
± gives the uncertainty stated by the source.

Assay: protein stability index of a GFP-peptide fusion (yeast GPS) (PSI 1-4); higher = more stable; sorted into four equal gates, so the index is relative within each strain
Conditions: doa10∆
Outline: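 Yeast carrying a pooled library were grown to mid-log phase in leucine-free medium. Each library plasmid expresses Cherry and has a tiled 17-residue yeast protein peptide fused downstream of GFP. Cells were sorted into four equal gates by GFP/Cherry ratio, and plasmids from each gate were PCR-amplified, Illumina-sequenced and assigned to strains by barcode. Summing, across gates, the read frequency times the gate number gave each peptide's protein stability index.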

Sequence	protein stability index
SATVKTSDLLGSHLSET [ECM29]	2.67 ± 0.071
SAWIWPMDEETKLYFDV [RPC25]	2.17 ± 0.075
SAYVKAFYQKGNKLVEL [SMC1]	1.45 ± 0.074
SDAEEEEGEYKNAANTE [ISW2]	3.06 ± 0.14
SDDKTRQLSPHTLMSFA [PRE1]	1.83 ± 0.046
SDEERDDEDDEHNPTIV [AAR2]	3.53 ± 0.086
SDERAKLELINRYAYVL [LRP1]	2.55 ± 0.067
SDLVNQGIIYAKVNRPA [RPN5]	2.97 ± 0.15
SDNKKRSGSNAAASLPS [RPC82]	2.89 ± 0.058
SDPMLQRTATLCLEKLM [YCS4]	1.47 ± 0.21
SEAEYSKDIETLKKEWL [YIL149C/MLP2]	3.26 ± 0.083
SEHFLYLAKELNLTGPK [RPN1]	2.98 ± 0.13
SEINEILARNDEEMAVL [SNF2]	2.88 ± 0.18
SELAGDEELEAEQIDVF [PRP8]	3.08 ± 0.2
SELQPQNRSLQEHNIQD [SNF2]	2.81 ± 0.041
SENEDTKDLLSKSPSEW [CSE2]	3.21 ± 0.067
SENQRQIFCVFSGKGVH [GRR1]	2.94 ± 0.073
SESDLDEDKNFPRSRSR [ESC2]	2.98 ± 0.087
SEYNFLEGSVSLPRFSK [DIS3]	3.1 ± 0.078
SFELKEEDISDLWNNFG [RRP6]	2.85 ± 0.1
SFILYYRRALQSSESFD [YML103C/NUP188]	1.79 ± 0.055
SFKKIIKFLLTFIDKER [YCS4]	1.16 ± 0.065
SFLDRKRAKEFITTLLK [SIN4]	2.35 ± 0.048
SFLMRQFTRFFLLVPSK [ECM29]	2.03 ± 0.067

Sequence	protein stability index
SFTQGELNDLKWGRNQP [YMR129W/POM152]	3.04 ± 0.15
SFTSQGTISIQLKNGLL [MTR3]	2.66 ± 0.05
SFVGDYMHDTELNYFVG [GRR1]	3.1 ± 0.068
SGDKEATAPLIQRKNKK [RPN8]	3.39 ± 0.2
SGDREVQRTMLELLNQL [RPT5]	3.28 ± 0.12
SGELLQGIVRVYSKQAT [MCD1]	1.82 ± 0.047
SGNEMPPQDAEGWFYKR [RPS19A]	3.21 ± 0.13
SGNLPLNELSAKDKEIY [RPN13]	3.21 ± 0.074
SGQLNFEIDGDVIHFED [PCI8]	2.94 ± 0.091
SGTPTLKKNIEPKKDKE [YOR098C/NUP1]	3.39 ± 0.19
SGVKNDILQSLSGGGHD [CDC53]	3.09 ± 0.075
SGWGAVVYIIKKDEVVK [PUP3]	3.25 ± 0.088
SHFDYNTLEFIIEQLSI [YCG1]	2.48 ± 0.078
SHIESDSTSHNNGSSDK [MED1]	2.89 ± 0.042
SHLVVPYCPIASITGTG [YMR129W/POM152]	1.36 ± 0.065
SHLYKARLDGHDFLFNT [RPN14]	3.37 ± 0.13
SHTSLVKIGKFIPHGLK [SRB8]	1.71 ± 0.053
SIAEEIPIAIVLKACGI [RET1]	1.61 ± 0.056
SIDDHPYNLNLFPNELY [RPC31]	2.14 ± 0.048
SIDFRTYRCSIKNLPAD [SRB2]	2.32 ± 0.074
SIGRTAQGKEFGVTKAR [RPL17A]	3.28 ± 0.14
SIMPDLYFYRDPEEVEQ [RPS0A]	2.86 ± 0.082
SINVHSNNITSGLNRAI [RET1]	3.19 ± 0.1
SIRAEAVAASSTKTGTP [POP1]	3.48 ± 0.15

Sequence	protein stability index
SKATGAPSANQGDEALS [RTT102]	3.28 ± 0.12
SKDLRSVWKPIAAIIGR [IRR1]	2.56 ± 0.06
SKEWFQLDDEDFDLLNK [FAS1]	3.03 ± 0.11
SKLSLSRTDAVRCKDCG [RPC10]	1.77 ± 0.076
SKMGAPWCVKPEYLAMY [ITC1]	2.92 ± 0.057
SKPSTASPSAHTSSSDG [RPN4]	2.71 ± 0.064
SKQLSLEEKKKRPNNKT [IRR1]	2.5 ± 0.11
SKSAPSKKISNTAAALV [YAR002W/NUP60]	3.1 ± 0.067
SKSENPVLSTIAFLVGL [SWI3]	3.01 ± 0.11
SKTHKTVSRAYGGSRCA [RPL34A]	2.68 ± 0.071
SKVVDDMPSLRLIDLSG [GRR1]	2.8 ± 0.076
SKYYPGVIIKVEESGEH [SNU114]	1.96 ± 0.061
SLCTVWKPNPSYDVENV [SRB5]	2.47 ± 0.097
SLDTSASTINGASIIQV [YML103C/NUP188]	1.19 ± 0.081
SLEGCVEMAWIMGFISY [FAS2]	1.97 ± 0.084
SLEMVPKDTSAATMTSA [RGR1]	2.47 ± 0.11
SLFQLSKLGKNLQTVHF [GRR1]	2.2 ± 0.047
SLGIRPCLRKYEEFRDV [RRP43]	3.27 ± 0.19
SLLAMHKHNIMKNENAN [CDC53]	2.2 ± 0.064
SLLERHIPRLIPKQLLD [YJL039C/NUP192]	2.11 ± 0.096
SLLSLVGHLSILPQQSK [ECM29]	2.21 ± 0.048
SLQDLIYKRGQAGVTKA [SMC2]	1.58 ± 0.15
SLQDSIIKQENFNSVND [SSN2]	2.4 ± 0.11
SLQSSSQTQLENANAAN [MED2]	1.96 ± 0.075

Sequence	protein stability index
SLTDVAFFTYDAGVTFN [ECM29]	2.66 ± 0.065
SLTRDFEQCCKEKKELQ [YIL149C/MLP2]	2.87 ± 0.089
SLVALGIDPQDLKKLNL [CDC53]	2.84 ± 0.068
SLYIYYLIKLLGFEVKD [SIR2]	2.32 ± 0.12
SMILEAISTDKINPFGF [RRI2]	2.85 ± 0.076
SMILGVAASIIPFPDHN [RPB2]	2.21 ± 0.12
SMINSVSPTNVMGTPLT [PGD1]	2.8 ± 0.053
SMKMELLKKELLTIEPK [SMC2]	2.85 ± 0.081
SMNKELIAIVSKLLQTT [NUT1]	1.88 ± 0.057
SMTAVPKPLKFLRPTYP [RPN1]	2.33 ± 0.058
SNASQMGNTGSGGYDNA [RPB3]	3.43 ± 0.27
SNDLDKFFQKKIHLYEK [YGL172W/NUP49]	2.21 ± 0.057
SNELIEHFSHFGHIMED [YDL088C/ASM4]	3.33 ± 0.12
SNESQNGKDSEIMYTGV [SMC3]	3.46 ± 0.14
SNGLLSIVLLLLSQFGI [YML103C/NUP188]	1.51 ± 0.12
SNIMSDSKKIKVDSPDD [GAL11]	2.9 ± 0.078
SNISDEKSRISERDSKD [YMR129W/POM152]	3.06 ± 0.1
SNKSNSTNESNKSISDE [SSN2]	3.04 ± 0.077
SNNELVRTNTLTKAAIV [RPS8A]	2.842 ± 0.022
SNQERCHDEGNDMLQRN [RRI1]	3.33 ± 0.075
SNSMDRSSSASNEFVPN [SWI1]	2.75 ± 0.055
SNSNNNGNKDSSFNFNK [SWI1]	3.04 ± 0.053
SNTMYSVRLFSFLDPLN [YJL039C/NUP192]	1.41 ± 0.048
SPAGKYKRQKSSLLYTY [ESC2]	1.24 ± 0.056

Same assay, conditions: pdr5∆

Sequence	protein stability index
SATVKTSDLLGSHLSET [ECM29]	2.98 ± 0.085
SAWIWPMDEETKLYFDV [RPC25]	2.4 ± 0.11
